The values below come from US20120316071A1 (published 2012).

Experiment [1] deals with T1, rHuman Notch-1/Fc Chimera, CF (R&D Systems Cat#3647-TK) (human, UniProt P46531 19-526).
T1 construct: Bought recombinant protein; Fc part of the bought chimera not given
Description: Multispot ECL (MSD) assay, antigen spotted on plate, Fab at 0.0624 µM; blank spot 960.

Experiment [2] has as its target T2, rHuman ErbB2/Fc Chimera, CF (R&D Systems Cat#1129-ER) (human, UniProt P04626 23-652).
T2 construct: Bought recombinant protein; also called human epidermal growth factor 2 receptor (ErbB2); Fc part of the bought chimera not given
Described as above.

The target in experiment [3] is T3, rHuman P-Cadherin/Fc Chimera, CF (R&D Systems Cat#861-PC) (human, UniProt P22223 108-654).
T3 construct: Bought recombinant protein; Fc part of the bought chimera not given
The description is as above.

Experiment [4] concerns the target T4, Recombinant Human DLL4 (R&D Systems Cat#1506-D4/CF) (human, UniProt Q9NR61 27-524).
T4 construct: Bought recombinant protein; also called delta-like protein 4; rHuman DLL4
Described as above.

The target of experiment [5] is T5, rHuman IGF-1 sR, (IGF-1 sR), CF (R&D Systems Cat#391-GR) (human, UniProt P08069 31-932).
T5 construct: Bought soluble receptor; also called insulin-like growth factor-1 soluble receptor
Description: MSD multispot ECL, antigen spotted, Fab 2.3 nM; blank spot 234.

In experiment [6] the target is T6, Recombinant Human DLL4 (R&D Systems Cat#1506-D4/CF) (human, UniProt Q9NR61 27-524).
T6 construct: Bought recombinant protein; also called rHuman DLL4; delta-like protein 4
The description is as above.

Experiment [7] has as its target T7, rHuman Erythropoietin R/Fc Chimera, CF (R&D Systems Cat#963-ER) (human, UniProt P19235 25-250).
T7 construct: Bought reagent; also called EPO R/Fc; Epo R
T7 sequence (looked up): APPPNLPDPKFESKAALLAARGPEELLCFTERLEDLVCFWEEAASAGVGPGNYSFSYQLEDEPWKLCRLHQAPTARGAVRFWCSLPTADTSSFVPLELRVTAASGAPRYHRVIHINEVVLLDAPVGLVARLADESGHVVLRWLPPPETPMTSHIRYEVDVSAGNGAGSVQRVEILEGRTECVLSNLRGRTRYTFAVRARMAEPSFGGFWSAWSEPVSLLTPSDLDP
The experiment is described as above.

The target in experiment [8] is T8, rHuman ErbB2/Fc Chimera, CF (R&D Systems Cat#1129-ER) (human, UniProt P04626 23-652).
T8 construct: Bought reagent; also called human epidermal growth factor 2 receptor
The description is as above.

Experiment [9] concerns the target T9, rHuman CD44/Fc Chimera, CF (R&D Systems Cat#3660-CD) (human, UniProt P16070 21-220).
T9 construct: Bought reagent
The description is as above.

In experiment [10] the target is T10, rHuman HGF R/c-MET/Fc Chimera, CF (R&D Systems Cat#358-MT/CF) (human, UniProt P08581 25-932).
T10 construct: Bought reagent; also called HGF R/Fc; hepatocyte growth factor receptor
The experiment is described as above.

The target of experiment [11] is T11, rHuman Notch-1/Fc Chimera, CF (R&D Systems Cat#3647-TK) (human, UniProt P46531 19-526).
T11 construct: Bought reagent
Described as above.

Experiment [12] addresses T12, rHuman EGF R/Fc Chimera, CF (R&D Systems Cat#344-ER) (human, UniProt P00533 25-645).
T12 construct: Bought reagent; also called epidermal growth factor receptor
The experiment is described as above.

The target in experiment [13] is T13, Recombinant Human DLL4 (R&D Systems Cat#1506-D4/CF) (human, UniProt Q9NR61 27-529).
T13 construct: Bought recombinant protein; also called delta-like protein 4; rHuman DLL4
Description: ECL Multispot (MSD), antigen spotted; Fab 500 (µM); blank 439.

Experiment [14] addresses T14, rHuman CD44/Fc Chimera, CF (R&D Systems Cat#3660-CD) (human, UniProt P16070 21-220).
T14 construct: Bought recombinant protein; Fc part of the bought chimera not given
The description is as above.

For experiment [15], the target named is T15, rHuman EGF R/Fc Chimera, CF (R&D Systems Cat#344-ER) (human, UniProt P00533 25-645).
T15 construct: Bought recombinant protein; Fc part of the bought chimera not given
The experiment is described as above.

The target of experiment [16] is T16, rHuman CD44/Fc Chimera, CF (R&D Systems Cat#3660-CD) (human, UniProt P16070 21-220).
T16 construct: Bought Fc chimera; Fc part of the bought chimera not given
Description: MSD Multispot ECL, antigen spotted on plate, Fab at 120 nM; blank spot 363.

Experiment [17] deals with T17, rHuman Notch-1/Fc Chimera, CF (R&D Systems Cat#3647-TK) (human, UniProt P46531 19-526).
T17 construct: Bought Fc chimera; Fc part of the bought chimera not given
The description is as above.

Experiment [18] concerns the target T18, rHuman Erythropoietin R/Fc Chimera, CF (R&D Systems Cat#963-ER) (human, UniProt P19235 25-250).
T18 construct: Bought Fc chimera; also called EPO R/Fc; Epo R; Fc part of the bought chimera not given
T18 sequence (looked up): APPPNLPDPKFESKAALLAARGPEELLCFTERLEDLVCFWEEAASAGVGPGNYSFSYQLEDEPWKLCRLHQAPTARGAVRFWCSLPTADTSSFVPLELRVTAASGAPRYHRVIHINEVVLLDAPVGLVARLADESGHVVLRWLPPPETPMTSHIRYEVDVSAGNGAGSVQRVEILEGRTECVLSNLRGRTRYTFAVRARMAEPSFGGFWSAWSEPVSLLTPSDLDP
The experiment is described as above.

The target in experiment [19] is T19, Recombinant Human DLL4 (R&D Systems Cat#1506-D4/CF) (human, UniProt Q9NR61 27-524).
T19 construct: Bought recombinant protein; also called rHuman DLL4; delta-like protein 4
The description is as above.

Experiment [20] has as its target T20, rHuman P-Cadherin/Fc Chimera, CF (R&D Systems Cat#861-PC) (human, UniProt P22223 108-654).
T20 construct: Bought Fc chimera; Fc part of the bought chimera not given
Described as above.

T10 sequence (P08581 25-932, change not shown): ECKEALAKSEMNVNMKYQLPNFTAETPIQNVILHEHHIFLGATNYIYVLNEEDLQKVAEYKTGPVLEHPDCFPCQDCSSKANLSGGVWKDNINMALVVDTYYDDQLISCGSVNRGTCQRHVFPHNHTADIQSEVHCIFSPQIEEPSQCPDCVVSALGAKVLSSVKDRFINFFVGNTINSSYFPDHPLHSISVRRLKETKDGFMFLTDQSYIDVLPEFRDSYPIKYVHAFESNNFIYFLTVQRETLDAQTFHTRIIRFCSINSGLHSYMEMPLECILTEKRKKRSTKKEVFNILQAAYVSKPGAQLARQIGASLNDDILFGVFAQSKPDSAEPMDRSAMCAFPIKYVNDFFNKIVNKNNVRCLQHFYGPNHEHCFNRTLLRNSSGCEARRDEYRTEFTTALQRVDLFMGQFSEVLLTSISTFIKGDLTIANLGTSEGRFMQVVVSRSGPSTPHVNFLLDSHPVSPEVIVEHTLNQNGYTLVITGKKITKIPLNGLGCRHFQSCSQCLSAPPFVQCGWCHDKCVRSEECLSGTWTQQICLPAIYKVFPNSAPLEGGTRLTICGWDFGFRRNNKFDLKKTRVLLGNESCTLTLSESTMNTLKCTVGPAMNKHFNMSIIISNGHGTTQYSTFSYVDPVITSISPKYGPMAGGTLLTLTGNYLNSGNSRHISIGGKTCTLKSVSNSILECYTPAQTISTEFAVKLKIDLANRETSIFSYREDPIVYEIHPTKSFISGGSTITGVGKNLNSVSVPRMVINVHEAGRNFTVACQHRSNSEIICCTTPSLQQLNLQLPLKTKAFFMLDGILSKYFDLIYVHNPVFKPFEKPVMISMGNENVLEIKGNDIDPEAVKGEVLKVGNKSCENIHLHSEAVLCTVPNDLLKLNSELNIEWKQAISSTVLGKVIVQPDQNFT

B1: Fab VH1-46_IGHD7-27*01_IGHJ2*01 & L6_IGKJ1*01 (Fab, V domains shown)
VH: QVQLVQSGAEVKKPGASVKVSCKASGYTFTSYYMHWVRQAPGQGLEWMGIINPSGGSTSYAQKFQGRVTMTRDTSTSTVYMELSSLRSEDTAVYYCARANWGYWYFDLWGRGTLVTVSS
VL: not shown
notes: Germline Fab made in E. coli; VH was cloned in Plasmid A (CH1 constant region, His6 and Flag tags) and the kappa VL in Plasmid C (kappa CL); Only the variable domains are tied to this Fab by name
For the molecule B1, the ECL signal in experiment [1] amounted to 2350; in [2], 2150; in [3], 4230; in experiment [4], 2580.

B2: Fab VH1-46_IGHD6-6*01_IGHJ1*01 & L6_IGKJ1*01 (Fab, V domains shown)
VH: QVQLVQSGAEVKKPGASVKVSCKASGYTFTSYYMHWVRQAPGQGLEWMGIINPSGGSTSYAQKFQGRVTMTRDTSTSTVYMELSSLRSEDTAVYYCAREEYSSSSAEYFQHWGQGTLVTVSS
VL: not shown
notes: Only variable domains are tied to the molecule; Tested as a Fab made in E. coli: heavy chain from Plasmid A (CH1 constant region, His6 and Flag tags), kappa light chain from Plasmid C (kappa CL); also called parent Hit Fab against DLL4; VH1-46_IGHD6-6*01_IGHJ1*01 & L6_IGKJ1*01 (parental)
Consider B2, for which the ECL signal came to 231 ECL signal in [5]; 3060 ECL signal in experiment [6]; 429 ECL signal in [7]; 291 ECL signal in [8]; 317 ECL signal in [9]; 253 ECL signal in [10]. For the same molecule, the ECL signal in [11] stood at 333 ECL signal; in experiment [12], 289 ECL signal.

B3: Fab VH1-46_IGHD6-6*01_IGHJ1*01 S102A/S103P/S104F (APF) & L6_IGKJ1*01 (Fab, V domains shown)
VH: QVQLVQSGAEVKKPGASVKVSCKASGYTFTSYYMHWVRQAPGQGLEWMGIINPSGGSTSYAQKFQGRVTMTRDTSTSTVYMELSSLRSEDTAVYYCAREEYAPFSAEYFQHWGQGTLVTVSS
VL: not shown
notes: Tested as a Fab made in E. coli: VH cloned in Plasmid A (CH1 constant region, His6 and Flag tags), VL in Plasmid C (kappa constant region); also called H:APF & L:wt; APF triple mutant
For the molecule B3, the ECL signal in experiment [13] was determined as 28900; in experiment [14], 874; in experiment [15], 1480.

B4: Fab VH6-1_IGHD3-3*01_IGHJ4*01 & V4-3_IGLJ4*01 (Fab, V domains shown)
VH: QVQLQQSGPGLVKPSQTLSLTCAISGDSVSSNSAAWNWIRQSPSRGLEWLGRTYYRSKWYNDYAVSVKSRITINPDTSKNQFSLQLNSVTPEDTAVYYCAREYYDFWSGYYTDYFDYWGQGTLVTVSS
VL: QPVLTQPTSLSASPGASARLTCTLRSGINLGSYRIFWYQQKPESPPRYLLSYYSDSSKHQGSGVPSRFSGSKDASSNAGILVISGLQSEDEADYYCMIWHSSASFVFGGGTQLIIL
notes: Tested as a purified germline Fab made in E. coli; The VH was cloned into plasmid A (CH1 constant region, His6 and Flag tags) and the lambda VL into plasmid E (lambda CL)
Regarding B4, the ECL signal was determined as 442 in experiment [16]; 472 in [17]; 431 in [18]; 938 in [19]; 450 in experiment [20].
